Laboratory results taken from patent publication US20160194394A1 (GOVERNING COUNCIL OF THE UNIVERSITY OF TORONTO, published 2016).

Experiments:
[1] = biological target: T1, recombinant Frizzled receptor 7 (FZD7) cysteine-rich domain (CRD) fused to the Fc region of human IgG (human, UniProt O75084 33-185); assay: ELISA, 1ug/ml (20nM) Fab
Description: (§1) FIG. 2B is a table depicting the binding of purified Fabs to purified FZD7-Fc measured by ELISA. Fabs purified from 25 ml bacterial cultures were assayed for binding to FZD7-Fc fusion protein (R&D systems) and Fc protein. ELISA plates (384 well) were coated with 2 ug/ml of protein in PBS overnight at four degrees. Wells were blocked with 0.5% BSA/PBS for 1 hour at room temperature, washed three times with 0.05% Tween20/PBS (wash buffer), and then primary dilutions of Fabs in 0.5% BSA/0.05% Tween20/PBS (dilution buffer) were added at indicated concentrations. Fabs were incubated for 1 hour at room temperature, wells were washed six times, and anti-FLAG-HRP (Sigma) was added at 1:5000 in dilution buffer. Secondary antibody was incubated for 45 minutes at room temperature, and wells were washed six times and developed with TMB substrate with an acid stop. The absorbance at 450 nm was read. n.t.=not tested.

[2] = biological target: T2, Fc control protein; assay: ELISA, 1ug/ml (20nM) Fab
T2 construct: also called Fc protein; control Fc protein
Description: as §1

[3] = biological target: T1, recombinant Frizzled receptor 7 (FZD7) …; assay: ELISA, 10ug/ml (200nM) Fab
Description: as §1

[4] = biological target: T2, Fc control protein; assay: ELISA, 10ug/ml (200nM) Fab
Description: as §1

[5] = biological target: T3, FZD7 receptor expressed on cells (full-length) (UniProt O75084 33-574, limits assumed); assay: flow cytometry, 200 nM Fab, MDA MB 231
T3 construct: whole, on cells; MDA MB 231 cells may carry other Frizzled receptors too; also called full-length FZD7 receptor; endogenous receptor on MDA MB 231 cells
Description: (§2) FIG. 3 is a table depicting the binding of the purified Fabs to cells expressing FZD7 (flow cytometry). Small scale Fabs were assayed for binding to full-length FZD7 receptor to an over-expression line in MDA MB 231 cells. In parallel, Fabs were assayed for binding to endogenous receptor expressed on the MDA MB 231 cells. Cells were harvested using an EDTA solution, blocked in 2% FBS/PBS (stain buffer), and stained with 200 nM Fab for 30 min on ice. Cells were washed two times with stain buffer and incubated with anti-F(ab′)₂-APC secondary antibody (Jackson Immuno) at 1:1000 for 15 minutes on ice. All antibodies were diluted in stain buffer. Cells were washed three times with stain buffer and then fixed with 1% paraformaldehye for analysis by flow cytometry. […] The percent of the cell population within the positive gates is indicated.

[6] = biological target: T3, FZD7 receptor expressed on cells …; assay: flow cytometry, 200 nM Fab, FZD7 over-expression line (MDA MB 231)
Description: as §2

[7] = biological target: T2, Fc control protein; assay: ELISA, 1ug/ml (20nM) Fab [cont'd]
Description: as §1

[8] = biological target: T2, Fc control protein; assay: ELISA, 10ug/ml (200nM) Fab [cont'd]
Description: as §1

[9] = biological target: T3, FZD7 receptor expressed on cells …; assay: flow cytometry, 200 nM Fab, MDA MB 231 [cont'd]
Description: as §2

[10] = biological target: T3, FZD7 receptor expressed on cells …; assay: flow cytometry, 200 nM Fab, FZD7 over-expression line (MDA MB 231) [cont'd]
Description: as §2

B1: D5 (Fab)
light: DIQMTQSPSSLSASVGDRVTITCRASQSVSSAVAWYQQKPGKAPKLLIYSASSLYSGVPSRFSGSRSGTDFTLTISSLQPEDFATYYCQQAYYLITFGQGTKVEIKRTVAAPSVFIFPPSDSQLKSGTASVVCLLNNFYPREAKVQWKVDNALQSGNSQESVTEQDSKDSTYSLSSTLTLSKADYEKHKVYACEVTHQGLSSPVTKSFNRGECGGS
heavy: EVQLVESGGGLVQPGGSLRLSCAASGFNIYYSSIHWVRQAPGKGLEWVASIYPSSGYTYYADSVKGRFTISADTSKNTAYLQMNSLRAEDTAVYYCARWAPHSSSWWSVYGWSAWAFDYWGQGTLVTVSSASTKGPSVFPLAPSSKSTSGGTAALGCLVKDYFPEPVTVSWNSGALTSGVHTFPAVLQSSGLYSLSSVVTVPSSSLGTQTYICNVNHKPSNTKVDKKVEPKSC
notes: selection round 2; also called Fzd7-R2-D5
Q: What does the source list for B1?
A: OD 450 [1]: 2.65; OD 450 [2]: 0.06; OD 450 [3]: 3.21; OD 450 [4]: 0.17; % population within the positive gate [5]: 3.9%; % population within the positive gate [6]: 88.1%

B2: H11 (Fab)
light: DIQMTQSPSSLSASVGDRVTITCRASQSVSSAVAWYQQKPGKAPKLLIYSASSLYSGVPSRFSGSRSGTDFTLTISSLQPEDFATYYCQQYSGPITFGQGTKVEIKRTVAAPSVFIFPPSDSQLKSGTASVVCLLNNFYPREAKVQWKVDNALQSGNSQESVTEQDSKDSTYSLSSTLTLSKADYEKHKVYACEVTHQGLSSPVTKSFNRGECGGS
heavy: EVQLVESGGGLVQPGGSLRLSCAASGFNISSSYIHWVRQAPGKGLEWVAYIYPYYSYTYYADSVKGRFTISADTSKNTAYLQMNSLRAEDTAVYYCARSVTYHSSGWVPPWYWGYAFDYWGQGTLVTVSSASTKGPSVFPLAPSSKSTSGGTAALGCLVKDYFPEPVTVSWNSGALTSGVHTFPAVLQSSGLYSLSSVVTVPSSSLGTQTYICNVNHKPSNTKVDKKVEPKSC
notes: selection round 2; also called Fzd7-R2-H11
Q: What does the source list for B2?
A: OD 450 [1]: 3.18; OD 450 [2]: 0.05; OD 450 [3]: 3.23; OD 450 [4]: 0.06

B3: B12 (Fab, V domains shown)
VH: EVQLVESGGGLVQPGGSLRLSCAASGFNLSYSYMHWVRQAPGKGLEWVASISSSYGYTYYADSVKGRFTISADTSKNTAYLQMNSLRAEDTAVYYCARAAGPYWYSYWYSAMDYWGQGTLVTVSS
VL: DIQMTQSPSSLSASVGDRVTITCRASQSVSSAVAWYQQKPGKAPKLLIYSASSLYSGVPSRFSGSRSGTDFTLTISSLQPEDFATYYCQQSSYSLITFGQGTKVEIKR
notes: selection round 2; also called Fzd7-R2-B12
Q: With B3 as the binder, how does the “OD 450” value [7] read?
A: 0.05

Q: And the “OD 450” value [8]?
A: 0.06

Q: What about the “% population within the positive gate” value [9] of the same binder?
A: 0.9%

Q: What about the “% population within the positive gate” value [10] of the same binder?
A: 74.6%

B4: C11 (Fab)
light: DIQMTQSPSSLSASVGDRVTITCRASQSVSSAVAWYQQKPGKAPKLLIYSASSLYSGVPSRFSGSRSGTDFTLTISSLQPEDFATYYCQQGHYYPYYLFTFGQGTKVEIKRTVAAPSVFIFPPSDSQLKSGTASVVCLLNNFYPREAKVQWKVDNALQSGNSQESVTEQDSKDSTYSLSSTLTLSKADYEKHKVYACEVTHQGLSSPVTKSFNRGECGGS
heavy: EVQLVESGGGLVQPGGSLRLSCAASGFNIYYSYMHWVRQAPGKGLEWVASIYSYSGYTYYADSVKGRFTISADTSKNTAYLQMNSLRAEDTAVYYCARSVWGYPYGMDYWGQGTLVTVSSASTKGPSVFPLAPSSKSTSGGTAALGCLVKDYFPEPVTVSWNSGALTSGVHTFPAVLQSSGLYSLSSVVTVPSSSLGTQTYICNVNHKPSNTKVDKKVEPKSC
notes: selection round 2; also called Fzd7-R2-C11
Q: What does the source list for B4?
A: OD 450 [1]: 0.24; OD 450 [2]: 0.07; OD 450 [3]: 1.09; OD 450 [4]: 0.06; % population within the positive gate [5]: 1%; % population within the positive gate [6]: 42%

B5: B8 (Fab)
light: DIQMTQSPSSLSASVGDRVTITCRASQSVSSAVAWYQQKPGKAPKLLIYSASSLYSGVPSRFSGSRSGTDFTLTISSLQPEDFATYYCQQSSYSLITFGQGTKVEIKRTVAAPSVFIFPPSDSQLKSGTASVVCLLNNFYPREAKVQWKVDNALQSGNSQESVTEQDSKDSTYSLSSTLTLSKADYEKHKVYACEVTHQGLSSPVTKSFNRGECGGS
heavy: EVQLVESGGGLVQPGGSLRLSCAASGFNISSYYIHWVRQAPGKGLEWVASISSSYGYTYYADSVKGRFTISADTSKNTAYLQMNSLRAEDTAVYYCARPWSHYSSGAYWHPWSGHALDYWGQGTLVTVSSASTKGPSVFPLAPSSKSTSGGTAALGCLVKDYFPEPVTVSWNSGALTSGVHTFPAVLQSSGLYSLSSVVTVPSSSLGTQTYICNVNHKPSNTKVDKKVEPKSC
notes: selection round 2; also called Fzd7-R2-B8
Q: For B5, which “OD 450” value [1] is on record?
A: 0.24

Q: And the “OD 450” value [2]?
A: 0.05

Q: What about the “OD 450” value [3] of the same binder?
A: 1.16

Q: And the “OD 450” value [4]?
A: 0.05

Q: What about the “% population within the positive gate” value [5] of the same binder?
A: 2.8%

Q: What about the “% population within the positive gate” value [6] of the same binder?
A: 80.9%

B6: A10 (Fab, V domains shown)
VH: EVQLVESGGGLVQPGGSLRLSCAASGFNFSSSSIHWVRQAPGKGLEWVAYIYPYYGYTYYADSVKGRFTISADTSKNTAYLQMNSLRAEDTAVYYCARWVVAGHYGMDYWGQGTLVTVSS
VL: DIQMTQSPSSLSASVGDRVTITCRASQSVSSAVAWYQQKPGKAPKLLIYSASSLYSGVPSRFSGSRSGTDFTLTISSLQPEDFATYYCQQSYWPGWPITFGQGTKVEIKR
notes: selection round 3; also called Fzd7-R3-A10
Q: With B6 as the binder, how does the “OD 450” value [7] read?
A: 0.05

Q: What about the “OD 450” value [8] of the same binder?
A: 0.05

B7: C8 (Fab)
light: DIQMTQSPSSLSASVGDRVTITCRASQSVSSAVAWYQQKPGKAPKLLIYSASSLYSGVPSRFSGSRSGTDFTLTISSLQPEDFATYYCQQYSPSSFLITFGQGTKVEIKRTVAAPSVFIFPPSDSQLKSGTASVVCLLNNFYPREAKVQWKVDNALQSGNSQESVTEQDSKDSTYSLSSTLTLSKADYEKHKVYACEVTHQGLSSPVTKSFNRGECGGS
heavy: EVQLVESGGGLVQPGGSLRLSCAASGFNIYYSYIHWVRQAPGKGLEWVASISSSSGYTSYADSVKGRFTISADTSKNTAYLQMNSLRAEDTAVYYCARSYGYYYYFYYYGGMDYWGQGTLVTVSSASTKGPSVFPLAPSSKSTSGGTAALGCLVKDYFPEPVTVSWNSGALTSGVHTFPAVLQSSGLYSLSSVVTVPSSSLGTQTYICNVNHKPSNTKVDKKVEPKSC
notes: selection round 2; also called Fzd7-R2-C8
Q: What does the source list for B7?
A: OD 450 [1]: 0.55; OD 450 [2]: 0.05; OD 450 [3]: 1.36; OD 450 [4]: 0.09; % population within the positive gate [5]: 2.7%; % population within the positive gate [6]: 83.5%

B8: D2 (Fab)
light: DIQMTQSPSSLSASVGDRVTITCRASQSVSSAVAWYQQKPGKAPKLLIYSASSLYSGVPSRFSGSRSGTDFTLTISSLQPEDFATYYCQQSYSGWGPFTFGQGTKVEIKRTVAAPSVFIFPPSDSQLKSGTASVVCLLNNFYPREAKVQWKVDNALQSGNSQESVTEQDSKDSTYSLSSTLTLSKADYEKHKVYACEVTHQGLSSPVTKSFNRGECGGS
heavy: EVQLVESGGGLVQPGGSLRLSCAASGFNISSSYIHWVRQAPGKGLEWVASISSSSSYTYYADSVKGRFTISADTSKNTAYLQMNSLRAEDTAVYYCARSAYPFSWSYPSYVGYYSGLDYWGQGTLVTVSSASTKGPSVFPLAPSSKSTSGGTAALGCLVKDYFPEPVTVSWNSGALTSGVHTFPAVLQSSGLYSLSSVVTVPSSSLGTQTYICNVNHKPSNTKVDKKVEPKSC
notes: selection round 2; also called Fzd7-R2-D2
Q: For B8, which “OD 450” value [1] is on record?
A: 0.5

Q: What about the “OD 450” value [2] of the same binder?
A: 0.06

Q: And the “OD 450” value [3]?
A: 1.6

Q: And the “OD 450” value [4]?
A: 0.05

Q: And the “% population within the positive gate” value [5]?
A: 0.8%

Q: What about the “% population within the positive gate” value [6] of the same binder?
A: 75.2%
